Results: publication PMC3750179
Values belong to the substance of their own block, whether it stands above or below them.

Experiments:
HA-GABAB1-YFP = HA-GABAB1-YFP (UniProt Q9Z0U4); experiment: FRET or BRET; BRET donor saturation curves in intact COS-1 cells: fixed Rluc fusion (donor) and fixed GABAB2, increasing GABAB1-YFP (acceptor); coelenterazine h 5 μM; PBS or 100 μM baclofen for 15 min; fit with a single binding site
Myc-GABAB1 = Myc-GABAB1 (UniProt Q9Z0U4); experiment: co-IP; cell surface immunoprecipitation: intact COS-1 cells incubated with mouse anti-Myc on ice for 3 h, then PBS or 100 μM baclofen for 15 min, lysed, protein G-agarose, Western blot; cells also expressed HA-GABAB2
HA-GABAB2 = HA-GABAB2 (UniProt O88871)
UniProt O88871, sequence (O88871 41-940): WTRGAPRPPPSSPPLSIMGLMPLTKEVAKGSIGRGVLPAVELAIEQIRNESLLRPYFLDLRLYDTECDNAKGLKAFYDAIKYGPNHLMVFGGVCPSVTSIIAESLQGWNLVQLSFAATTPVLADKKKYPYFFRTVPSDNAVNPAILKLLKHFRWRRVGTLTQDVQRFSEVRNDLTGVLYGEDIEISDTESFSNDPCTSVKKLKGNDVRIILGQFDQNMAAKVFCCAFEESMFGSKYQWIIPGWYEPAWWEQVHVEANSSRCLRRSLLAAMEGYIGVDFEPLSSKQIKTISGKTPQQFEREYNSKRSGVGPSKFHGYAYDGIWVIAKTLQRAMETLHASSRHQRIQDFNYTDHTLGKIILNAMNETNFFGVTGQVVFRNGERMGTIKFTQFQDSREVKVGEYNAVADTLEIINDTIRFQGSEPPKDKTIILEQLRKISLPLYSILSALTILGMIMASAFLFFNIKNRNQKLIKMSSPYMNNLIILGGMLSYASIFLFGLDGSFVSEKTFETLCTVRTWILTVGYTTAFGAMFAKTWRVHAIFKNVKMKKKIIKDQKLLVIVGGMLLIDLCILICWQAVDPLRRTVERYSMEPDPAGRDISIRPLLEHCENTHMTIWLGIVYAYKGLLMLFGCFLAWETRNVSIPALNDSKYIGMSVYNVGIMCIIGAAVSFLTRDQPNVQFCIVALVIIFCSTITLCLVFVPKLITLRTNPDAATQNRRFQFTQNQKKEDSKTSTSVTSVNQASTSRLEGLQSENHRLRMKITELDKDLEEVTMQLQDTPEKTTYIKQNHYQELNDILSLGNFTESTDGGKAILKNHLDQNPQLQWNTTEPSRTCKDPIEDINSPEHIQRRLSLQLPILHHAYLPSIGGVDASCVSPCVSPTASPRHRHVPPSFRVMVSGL

- BRET50 (HA-GABAB1-YFP): 0.026
Substance: Rluc-KCTD12 (from UniProt Q6WVG3 1-327) (natural protein)

- ratio of KCTD12:GABAB1 band intensity on Western blots (PBS) (Myc-GABAB1): 0.84
- ratio of KCTD12:GABAB1 band intensity on Western blots (baclofen) (Myc-GABAB1): 0.91
Substance: FLAG-KCTD12 (from UniProt Q6WVG3 1-327) (natural protein)

- Endo H-resistant fraction of GABAB1 protein in COS-1 cells co-expressing GABAB1 and GABAB2 (all GABAB1 Endo H-sensitive without GABAB2) (HA-GABAB2): 44.5%
Substance: Myc-GABAB1 (from UniProt Q9Z0U4 20-960) (receptor)
